The values that follow come from patent US20170362327A1.

The test deals with human TrkA on the surface of TF-1 cells (human), P04629. In words: cell-based or functional assay.
Chain of human TrkA on the surface of TF-1 cells (human), P04629 (P04629 33-796): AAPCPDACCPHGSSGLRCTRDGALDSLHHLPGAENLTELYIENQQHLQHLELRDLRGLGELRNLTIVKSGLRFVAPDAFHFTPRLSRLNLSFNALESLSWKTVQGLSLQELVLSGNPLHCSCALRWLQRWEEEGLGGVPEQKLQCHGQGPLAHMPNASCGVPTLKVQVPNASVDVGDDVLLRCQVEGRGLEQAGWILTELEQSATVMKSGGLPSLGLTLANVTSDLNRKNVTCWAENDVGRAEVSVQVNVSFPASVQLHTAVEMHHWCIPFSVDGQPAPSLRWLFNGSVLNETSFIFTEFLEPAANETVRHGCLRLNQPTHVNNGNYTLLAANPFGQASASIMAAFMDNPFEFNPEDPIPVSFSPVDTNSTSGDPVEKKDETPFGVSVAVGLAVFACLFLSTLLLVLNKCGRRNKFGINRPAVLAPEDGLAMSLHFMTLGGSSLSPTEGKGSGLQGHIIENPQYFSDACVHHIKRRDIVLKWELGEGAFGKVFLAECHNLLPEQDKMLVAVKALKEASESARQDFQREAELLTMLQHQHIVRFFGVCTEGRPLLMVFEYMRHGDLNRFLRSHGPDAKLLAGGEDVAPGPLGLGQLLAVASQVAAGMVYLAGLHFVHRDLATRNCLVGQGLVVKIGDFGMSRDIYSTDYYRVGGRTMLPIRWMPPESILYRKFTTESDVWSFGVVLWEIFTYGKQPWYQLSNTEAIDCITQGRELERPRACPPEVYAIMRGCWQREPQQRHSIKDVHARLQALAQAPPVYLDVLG

B1: MNAC13 mouse antibody (antibody, mouse IgG1, kappa)
heavy: EVKLVESGGGLVQPGGSLKLSCAASGFTFSTYTMSWARQTPEKRLEWVAYISKGGGSTYYPDTVKGRFTISRDNAKNTLYLQMSSLKSEDTALYYCARGAMYGNDFFYPMDYWGQGTSVTVSSKTTPPSVYPLAPGSAAQTNSMVTLGCLVKGYFPEPVTVTWNSGSLSSGVHTFPAVLESDLYTLSSSVTVPSSPRPSETVTCNVAHPASSTKVDKKIVPRDCGCKPCICTVPEVSSVFIFPPKPKDVLTITLTPKVTCVVVDISKDDPEVQFSWFVDDVEVHTAQTQPREEQFNSTFRSVSELPIMHQDWLNGKEFKCRVNSAAFPAPIEKTISKTKGRPKAPQVYTIPPPKEQMAKDKVSLTCMITDFFPEDITVEWQWNGQPAENYKNTQPIMNTNGSYFVYSKLNVQKSNWEAGNTFTCSVLHEGLHNHHTEKSLSHSPGK
light: QIVLTQSPAIMSASLGEEITLTCSASSSVSYMHWYQQKSGTSPKLLIYTTSNLASGVPSRFSGSGSGTFYSLTISSVEAEDAADYYCHQWSSYPWTFGGGTKLEIKADAAPTVSIFPPSSEQLTSGGASVVCFLNNFYPKDINVKWKIDGSERQNGVLNSWTDQDSKDSTYSMSSTLTLTKDEYERHNSYTCEATHKTSTSPIVKSFNRNEC
As for B1, the TF-1 cell proliferation assay IC50 (beta-NGF induced proliferation) is 0.23 µg/mL.
